In US20140087995A1 (published 2014):
Numbered stars: 1 amine (or outer) side, 2 acyl side, 3 side chain; on linkers, the order of the positions; unused ones are H or OH. Bridge positions count the residues as written; N and C are the ends. Side chains are listed from the residue outwards. Ends that are not written are not given here. * marks the point of attachment. C20 diacid = O=C(O)CCCCCCCCCCCCCCCCCCC(=O)*; γGlu = O=C(O)[C@H](CCC(=O)[*:2])N[*:1]; AEEA = NCCOCCOCC(=O)O

T1: human amylin receptor (amylin 3(a) receptor: human calcitonin receptor with RAMP-3) (human, UniProt P30988 25-474; O60896 24-148)
T1 construct: whole, on cells; also called hAmylin-R; hAmylinR
T1 sequence (looked up) 1: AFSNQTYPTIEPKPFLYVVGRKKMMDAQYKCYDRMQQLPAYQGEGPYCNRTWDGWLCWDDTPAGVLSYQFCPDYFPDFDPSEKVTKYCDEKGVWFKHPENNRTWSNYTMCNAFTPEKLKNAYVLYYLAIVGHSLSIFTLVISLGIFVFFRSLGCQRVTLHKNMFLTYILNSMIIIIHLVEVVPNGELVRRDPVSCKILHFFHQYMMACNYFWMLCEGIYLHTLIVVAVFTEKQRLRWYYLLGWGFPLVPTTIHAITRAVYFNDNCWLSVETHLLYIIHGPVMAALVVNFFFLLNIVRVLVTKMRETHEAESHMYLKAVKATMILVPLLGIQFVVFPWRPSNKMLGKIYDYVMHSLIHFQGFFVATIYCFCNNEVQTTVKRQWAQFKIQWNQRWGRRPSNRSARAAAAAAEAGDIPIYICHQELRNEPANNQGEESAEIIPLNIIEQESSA
T1 sequence (looked up) 2: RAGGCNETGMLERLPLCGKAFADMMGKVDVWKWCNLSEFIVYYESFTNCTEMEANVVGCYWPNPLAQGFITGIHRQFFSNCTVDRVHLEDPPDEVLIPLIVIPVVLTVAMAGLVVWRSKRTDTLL

B1: N^ε1-[2-[2-[2-[[(4S)-4-carboxy-4-(19-carboxynonadecanoylamino)butanoyl]amino]ethoxy]ethoxy]acetyl]-[Arg17,Pro21,Pro27,Pro29,Pro31]-h-amylin (peptide)
peptide: K([AEEA-γGlu-C20 diacid])CNTATCATQRLANFLRHSSPNFGAIPSPTPVGSNTY-NH2
modifications: disulfide 2-7; N-terminus assumed
SMILES: CC[C@H](C)[C@H](NC(=O)[C@H](C)NC(=O)CNC(=O)[C@H](Cc1ccccc1)NC(=O)[C@H](CC(N)=O)NC(=O)[C@@H]1CCCN1C(=O)[C@H](CO)NC(=O)[C@H](CO)NC(=O)[C@H](Cc1c[nH]cn1)NC(=O)[C@H](CCCNC(=N)N)NC(=O)[C@H](CC(C)C)NC(=O)[C@H](Cc1ccccc1)NC(=O)[C@H](CC(N)=O)NC(=O)[C@H](C)NC(=O)[C@H](CC(C)C)NC(=O)[C@H](CCCNC(=N)N)NC(=O)[C@H](CCC(N)=O)NC(=O)[C@@H](NC(=O)[C@H](C)NC(=O)[C@@H]1CSSC[C@H](NC(=O)[C@@H](N)CCCCNC(=O)COCCOCCNC(=O)CC[C@H](NC(=O)CCCCCCCCCCCCCCCCCCC(=O)O)C(=O)O)C(=O)N[C@@H](CC(N)=O)C(=O)N[C@@H]([C@@H](C)O)C(=O)N[C@@H](C)C(=O)N[C@@H]([C@@H](C)O)C(=O)N1)[C@@H](C)O)C(=O)N1CCC[C@H]1C(=O)N[C@@H](CO)C(=O)N1CCC[C@H]1C(=O)N[C@H](C(=O)N1CCC[C@H]1C(=O)N[C@H](C(=O)NCC(=O)N[C@@H](CO)C(=O)N[C@@H](CC(N)=O)C(=O)N[C@H](C(=O)N[C@@H](Cc1ccc(O)cc1)C(N)=O)[C@@H](C)O)C(C)C)[C@@H](C)O
notes: also called 54; compound 54
B2: N^ε1-[2-[2-[2-[[(4S)-4-carboxy-4-(19-carboxynonadecanoylamino)butanoyl]amino]ethoxy]ethoxy]acetyl]-[Arg17,Pro21,Pro27,Pro29,Pro34]-h-amylin (peptide)
peptide: K([AEEA-γGlu-C20 diacid])CNTATCATQRLANFLRHSSPNFGAIPSPTNVGPNTY-NH2
modifications: disulfide 2-7; N-terminus assumed
SMILES: CC[C@H](C)[C@H](NC(=O)[C@H](C)NC(=O)CNC(=O)[C@H](Cc1ccccc1)NC(=O)[C@H](CC(N)=O)NC(=O)[C@@H]1CCCN1C(=O)[C@H](CO)NC(=O)[C@H](CO)NC(=O)[C@H](Cc1c[nH]cn1)NC(=O)[C@H](CCCNC(=N)N)NC(=O)[C@H](CC(C)C)NC(=O)[C@H](Cc1ccccc1)NC(=O)[C@H](CC(N)=O)NC(=O)[C@H](C)NC(=O)[C@H](CC(C)C)NC(=O)[C@H](CCCNC(=N)N)NC(=O)[C@H](CCC(N)=O)NC(=O)[C@@H](NC(=O)[C@H](C)NC(=O)[C@@H]1CSSC[C@H](NC(=O)[C@@H](N)CCCCNC(=O)COCCOCCNC(=O)CC[C@H](NC(=O)CCCCCCCCCCCCCCCCCCC(=O)O)C(=O)O)C(=O)N[C@@H](CC(N)=O)C(=O)N[C@@H]([C@@H](C)O)C(=O)N[C@@H](C)C(=O)N[C@@H]([C@@H](C)O)C(=O)N1)[C@@H](C)O)C(=O)N1CCC[C@H]1C(=O)N[C@@H](CO)C(=O)N1CCC[C@H]1C(=O)N[C@H](C(=O)N[C@@H](CC(N)=O)C(=O)N[C@H](C(=O)NCC(=O)N1CCC[C@H]1C(=O)N[C@@H](CC(N)=O)C(=O)N[C@H](C(=O)N[C@@H](Cc1ccc(O)cc1)C(N)=O)[C@@H](C)O)C(C)C)[C@@H](C)O
notes: also called 56; compound 56
B3: N^ε1-[2-[2-[2-[[(4S)-4-carboxy-4-(19-carboxynonadecanoylamino)butanoyl]amino]ethoxy]ethoxy]acetyl]-[Arg17,Pro21,Pro27,Pro34,His35]-h-amylin (peptide)
peptide: K([AEEA-γGlu-C20 diacid])CNTATCATQRLANFLRHSSPNFGAIPSSTNVGPHTY-NH2
modifications: disulfide 2-7; N-terminus assumed
SMILES: CC[C@H](C)[C@H](NC(=O)[C@H](C)NC(=O)CNC(=O)[C@H](Cc1ccccc1)NC(=O)[C@H](CC(N)=O)NC(=O)[C@@H]1CCCN1C(=O)[C@H](CO)NC(=O)[C@H](CO)NC(=O)[C@H](Cc1c[nH]cn1)NC(=O)[C@H](CCCNC(=N)N)NC(=O)[C@H](CC(C)C)NC(=O)[C@H](Cc1ccccc1)NC(=O)[C@H](CC(N)=O)NC(=O)[C@H](C)NC(=O)[C@H](CC(C)C)NC(=O)[C@H](CCCNC(=N)N)NC(=O)[C@H](CCC(N)=O)NC(=O)[C@@H](NC(=O)[C@H](C)NC(=O)[C@@H]1CSSC[C@H](NC(=O)[C@@H](N)CCCCNC(=O)COCCOCCNC(=O)CC[C@H](NC(=O)CCCCCCCCCCCCCCCCCCC(=O)O)C(=O)O)C(=O)N[C@@H](CC(N)=O)C(=O)N[C@@H]([C@@H](C)O)C(=O)N[C@@H](C)C(=O)N[C@@H]([C@@H](C)O)C(=O)N1)[C@@H](C)O)C(=O)N1CCC[C@H]1C(=O)N[C@@H](CO)C(=O)N[C@@H](CO)C(=O)N[C@H](C(=O)N[C@@H](CC(N)=O)C(=O)N[C@H](C(=O)NCC(=O)N1CCC[C@H]1C(=O)N[C@@H](Cc1c[nH]cn1)C(=O)N[C@H](C(=O)N[C@@H](Cc1ccc(O)cc1)C(N)=O)[C@@H](C)O)C(C)C)[C@@H](C)O
notes: also called 58; compound 58
B4: N^ε1-[2-[2-[2-[[(4S)-4-carboxy-4-(19-carboxynonadecanoylamino)butanoyl]amino]ethoxy]ethoxy]acetyl]-[Arg17,Pro21,Pro27,Pro34]-h-amylin (peptide)
peptide: K([AEEA-γGlu-C20 diacid])CNTATCATQRLANFLRHSSPNFGAIPSSTNVGPNTY-NH2
modifications: disulfide 2-7; N-terminus assumed
SMILES: CC[C@H](C)[C@H](NC(=O)[C@H](C)NC(=O)CNC(=O)[C@H](Cc1ccccc1)NC(=O)[C@H](CC(N)=O)NC(=O)[C@@H]1CCCN1C(=O)[C@H](CO)NC(=O)[C@H](CO)NC(=O)[C@H](Cc1c[nH]cn1)NC(=O)[C@H](CCCNC(=N)N)NC(=O)[C@H](CC(C)C)NC(=O)[C@H](Cc1ccccc1)NC(=O)[C@H](CC(N)=O)NC(=O)[C@H](C)NC(=O)[C@H](CC(C)C)NC(=O)[C@H](CCCNC(=N)N)NC(=O)[C@H](CCC(N)=O)NC(=O)[C@@H](NC(=O)[C@H](C)NC(=O)[C@@H]1CSSC[C@H](NC(=O)[C@@H](N)CCCCNC(=O)COCCOCCNC(=O)CC[C@H](NC(=O)CCCCCCCCCCCCCCCCCCC(=O)O)C(=O)O)C(=O)N[C@@H](CC(N)=O)C(=O)N[C@@H]([C@@H](C)O)C(=O)N[C@@H](C)C(=O)N[C@@H]([C@@H](C)O)C(=O)N1)[C@@H](C)O)C(=O)N1CCC[C@H]1C(=O)N[C@@H](CO)C(=O)N[C@@H](CO)C(=O)N[C@H](C(=O)N[C@@H](CC(N)=O)C(=O)N[C@H](C(=O)NCC(=O)N1CCC[C@H]1C(=O)N[C@@H](CC(N)=O)C(=O)N[C@H](C(=O)N[C@@H](Cc1ccc(O)cc1)C(N)=O)[C@@H](C)O)C(C)C)[C@@H](C)O
notes: also called 50; compound 50
B5: N^ε1-[2-[2-[2-[[(4S)-4-carboxy-4-(19-carboxynonadecanoylamino)butanoyl]amino]ethoxy]ethoxy]acetyl]-[Arg17,Pro21,Pro27,Pro31]-h-amylin (peptide)
peptide: K([AEEA-γGlu-C20 diacid])CNTATCATQRLANFLRHSSPNFGAIPSSTPVGSNTY-NH2
modifications: disulfide 2-7; N-terminus assumed
SMILES: CC[C@H](C)[C@H](NC(=O)[C@H](C)NC(=O)CNC(=O)[C@H](Cc1ccccc1)NC(=O)[C@H](CC(N)=O)NC(=O)[C@@H]1CCCN1C(=O)[C@H](CO)NC(=O)[C@H](CO)NC(=O)[C@H](Cc1c[nH]cn1)NC(=O)[C@H](CCCNC(=N)N)NC(=O)[C@H](CC(C)C)NC(=O)[C@H](Cc1ccccc1)NC(=O)[C@H](CC(N)=O)NC(=O)[C@H](C)NC(=O)[C@H](CC(C)C)NC(=O)[C@H](CCCNC(=N)N)NC(=O)[C@H](CCC(N)=O)NC(=O)[C@@H](NC(=O)[C@H](C)NC(=O)[C@@H]1CSSC[C@H](NC(=O)[C@@H](N)CCCCNC(=O)COCCOCCNC(=O)CC[C@H](NC(=O)CCCCCCCCCCCCCCCCCCC(=O)O)C(=O)O)C(=O)N[C@@H](CC(N)=O)C(=O)N[C@@H]([C@@H](C)O)C(=O)N[C@@H](C)C(=O)N[C@@H]([C@@H](C)O)C(=O)N1)[C@@H](C)O)C(=O)N1CCC[C@H]1C(=O)N[C@@H](CO)C(=O)N[C@@H](CO)C(=O)N[C@H](C(=O)N1CCC[C@H]1C(=O)N[C@H](C(=O)NCC(=O)N[C@@H](CO)C(=O)N[C@@H](CC(N)=O)C(=O)N[C@H](C(=O)N[C@@H](Cc1ccc(O)cc1)C(N)=O)[C@@H](C)O)C(C)C)[C@@H](C)O
notes: also called 49; compound 49
B6: N^ε1-[2-[2-[2-[[(4S)-4-carboxy-4-(19-carboxynonadecanoylamino)butanoyl]amino]ethoxy]ethoxy]acetyl]-[Arg17,Pro21,Pro27,Pro31,His35]-h-amylin (peptide)
peptide: K([AEEA-γGlu-C20 diacid])CNTATCATQRLANFLRHSSPNFGAIPSSTPVGSHTY-NH2
modifications: disulfide 2-7; N-terminus assumed
SMILES: CC[C@H](C)[C@H](NC(=O)[C@H](C)NC(=O)CNC(=O)[C@H](Cc1ccccc1)NC(=O)[C@H](CC(N)=O)NC(=O)[C@@H]1CCCN1C(=O)[C@H](CO)NC(=O)[C@H](CO)NC(=O)[C@H](Cc1c[nH]cn1)NC(=O)[C@H](CCCNC(=N)N)NC(=O)[C@H](CC(C)C)NC(=O)[C@H](Cc1ccccc1)NC(=O)[C@H](CC(N)=O)NC(=O)[C@H](C)NC(=O)[C@H](CC(C)C)NC(=O)[C@H](CCCNC(=N)N)NC(=O)[C@H](CCC(N)=O)NC(=O)[C@@H](NC(=O)[C@H](C)NC(=O)[C@@H]1CSSC[C@H](NC(=O)[C@@H](N)CCCCNC(=O)COCCOCCNC(=O)CC[C@H](NC(=O)CCCCCCCCCCCCCCCCCCC(=O)O)C(=O)O)C(=O)N[C@@H](CC(N)=O)C(=O)N[C@@H]([C@@H](C)O)C(=O)N[C@@H](C)C(=O)N[C@@H]([C@@H](C)O)C(=O)N1)[C@@H](C)O)C(=O)N1CCC[C@H]1C(=O)N[C@@H](CO)C(=O)N[C@@H](CO)C(=O)N[C@H](C(=O)N1CCC[C@H]1C(=O)N[C@H](C(=O)NCC(=O)N[C@@H](CO)C(=O)N[C@@H](Cc1c[nH]cn1)C(=O)N[C@H](C(=O)N[C@@H](Cc1ccc(O)cc1)C(N)=O)[C@@H](C)O)C(C)C)[C@@H](C)O
notes: also called 57; compound 57

Target: T1, human amylin receptor (amylin 3(a) …)
Assay: SPA displacement of 125I-rat amylin, hAmylin 3(a) receptor membranes
Summary of the method: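 One-site competition analysis of SPA counts yielded IC₅₀ as a measure of affinity. Membranes were at 35 ng/μL final; incubation was 120 min at 25° C, pH 7.4.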

IC50	Binder
0.03 nM	B1
0.049 nM	B2
0.088 nM	B3
0.038 nM	B4
1.19 nM	B5
0.115 nM	B6
